Assay results reported in patent publication US20180092966A1 (CSL, published 2018).

How the values were obtained:
[1] = biological target: T1, VWF-FP E1015C mutant (albumin-fused von Willebrand Factor) (human); test: covalent-FVIII ELISA over FVIII activity assay
T1 construct: Stably expressed in CHO cells with furin co-transfected; also called VWF-FP mutant E1015C; Cys residue at VWF aa position 1015; not shown: linker between VWF and albumin, made in analogy to WO 2009/156137

[2] = biological target: T2, VWF-FP H817C mutant (albumin-fused von Willebrand Factor) (human); test: covalent-FVIII ELISA over FVIII activity assay
T2 construct: Stably expressed in CHO cells with furin co-transfected; also called VWF-FP mutant H817C; Cys residue at VWF aa position 817; not shown: linker between VWF and albumin, made in analogy to WO 2009/156137

[3] = biological target: T3, VWF-FP R768C mutant (albumin-fused von Willebrand Factor) (human); test: covalent-FVIII ELISA over FVIII activity assay
T3 construct: Stably expressed in CHO cells with furin co-transfected; also called VWF-FP mutant R768C; Cys residue at VWF aa position 768; not shown: linker between VWF and albumin, made in analogy to WO 2009/156137

[4] = biological target: T4, VWF-FP N1134C mutant (albumin-fused von Willebrand Factor) (human); test: covalent-FVIII ELISA over FVIII activity assay
T4 construct: Stably expressed in CHO cells with furin co-transfected; also called VWF-FP mutant N1134C; Cys residue at VWF aa position 1134; not shown: linker between VWF and albumin, made in analogy to WO 2009/156137

[5] = biological target: T5, VWF-FP L984C mutant (albumin-fused von Willebrand Factor) (human); test: covalent-FVIII ELISA over FVIII activity assay
T5 construct: Stably expressed in CHO cells with furin co-transfected; also called VWF-FP mutant L984C; Cys residue at VWF aa position 984; not shown: linker between VWF and albumin, made in analogy to WO 2009/156137

[6] = biological target: T6, VWF-FP K1116C mutant (albumin-fused von Willebrand Factor) (human); test: covalent-FVIII ELISA over FVIII activity assay
T6 construct: Stably expressed in CHO cells with furin co-transfected; also called VWF-FP mutant K1116C; Cys residue at VWF aa position 1116; not shown: linker between VWF and albumin, made in analogy to WO 2009/156137

[7] = biological target: T1, VWF-FP E1015C mutant (albumin-fused von …); test: ELISA of co-expression supernatant: anti-VWF capture, 350 mM CaCl2 wash, anti-FVIII detection
Method: (§1) Cell culture supernatant samples (10 ml) from transient transfections were concentrated with Amicon Ultracell-30K (Millipore UFC903024; 3000 g centrifugation). FVIII covalently attached to VWF-FP in culture supernatant (concentrates) was determined by a standard ELISA. Briefly, microplates were incubated with 100 μL per well of the capture antibody (rabbit anti human VWF-IgG, Dako A0082 [Dako, Hamburg, Germany], diluted 1:2000 in buffer A [Sigma C3041, Sigma-Aldrich, Munich, Germany]) overnight at ambient temperature. After washing plates three times with buffer B (Sigma T9039), each well was incubated with 200 μL buffer C (Sigma T6789) for 1.5 hours at ambient temperature (blocking). After another three wash steps with buffer B, serial dilutions of the test sample in buffer B as well as serial dilutions of a control preparation of covalently linked FVIII-VWF-FP, (2.0-0.03 arbitrary U/ml in buffer B (we call these “arbitrary units” as they may not correspond to the standard FVIII units as determined using Standard Human Plasma); volumes per well: 100 μL) were incubated for 1.5 hours at ambient temperature. After three wash steps with buffer B, 200 μL of 350 mM CaCl₂ were added to each well and incubated for 1 hour at ambient temperature. CaCl₂ was removed (without washing) and additional 200 μl were added to each well and incubated further for 1 hour. After three wash steps with buffer B 100 μL of a 1:2 dilution in buffer B of the detection antibody (Detecting Antibody for FVIII:C, peroxidase labelled, Cedarlane CL20035K-D) were added to each well and incubated for 1 hour at ambient temperature. After three wash steps with buffer B, 100 μL of substrate solution (OUVF, Siemens Healthcare Diagnostics) were added per well and incubated for 15 minutes at ambient temperature in the dark. Addition of 100 μL undiluted stop dilution (OSFA, Siemens Healthcare Diagnostics) prepared the samples for reading in a suitable microplate reader at 450 nm wavelength. Concentrations of the test samples were then calculated using the standard curve with the control preparation.

[8] = biological target: T2, VWF-FP H817C mutant (albumin-fused von …); test: as above
Method: as §1

[9] = biological target: T3, VWF-FP R768C mutant (albumin-fused von …); test: as above
Method: as §1

[10] = biological target: T4, VWF-FP N1134C mutant (albumin-fused von …); test: as above
Method: as §1

[11] = biological target: T5, VWF-FP L984C mutant (albumin-fused von …); test: as above
Method: as §1

[12] = biological target: T6, VWF-FP K1116C mutant (albumin-fused von …); test: as above
Method: as §1

[13] = biological target: T1, VWF-FP E1015C mutant (albumin-fused von …); test: covalent-FVIII ELISA over FVIII antigen ELISA
[14] = biological target: T2, VWF-FP H817C mutant (albumin-fused von …); test: covalent-FVIII ELISA over FVIII antigen ELISA
[15] = biological target: T3, VWF-FP R768C mutant (albumin-fused von …); test: covalent-FVIII ELISA over FVIII antigen ELISA
[16] = biological target: T4, VWF-FP N1134C mutant (albumin-fused von …); test: covalent-FVIII ELISA over FVIII antigen ELISA
[17] = biological target: T5, VWF-FP L984C mutant (albumin-fused von …); test: covalent-FVIII ELISA over FVIII antigen ELISA
[18] = biological target: T6, VWF-FP K1116C mutant (albumin-fused von …); test: covalent-FVIII ELISA over FVIII antigen ELISA

T3 sequence (chain, as listed by the source R768C R768C): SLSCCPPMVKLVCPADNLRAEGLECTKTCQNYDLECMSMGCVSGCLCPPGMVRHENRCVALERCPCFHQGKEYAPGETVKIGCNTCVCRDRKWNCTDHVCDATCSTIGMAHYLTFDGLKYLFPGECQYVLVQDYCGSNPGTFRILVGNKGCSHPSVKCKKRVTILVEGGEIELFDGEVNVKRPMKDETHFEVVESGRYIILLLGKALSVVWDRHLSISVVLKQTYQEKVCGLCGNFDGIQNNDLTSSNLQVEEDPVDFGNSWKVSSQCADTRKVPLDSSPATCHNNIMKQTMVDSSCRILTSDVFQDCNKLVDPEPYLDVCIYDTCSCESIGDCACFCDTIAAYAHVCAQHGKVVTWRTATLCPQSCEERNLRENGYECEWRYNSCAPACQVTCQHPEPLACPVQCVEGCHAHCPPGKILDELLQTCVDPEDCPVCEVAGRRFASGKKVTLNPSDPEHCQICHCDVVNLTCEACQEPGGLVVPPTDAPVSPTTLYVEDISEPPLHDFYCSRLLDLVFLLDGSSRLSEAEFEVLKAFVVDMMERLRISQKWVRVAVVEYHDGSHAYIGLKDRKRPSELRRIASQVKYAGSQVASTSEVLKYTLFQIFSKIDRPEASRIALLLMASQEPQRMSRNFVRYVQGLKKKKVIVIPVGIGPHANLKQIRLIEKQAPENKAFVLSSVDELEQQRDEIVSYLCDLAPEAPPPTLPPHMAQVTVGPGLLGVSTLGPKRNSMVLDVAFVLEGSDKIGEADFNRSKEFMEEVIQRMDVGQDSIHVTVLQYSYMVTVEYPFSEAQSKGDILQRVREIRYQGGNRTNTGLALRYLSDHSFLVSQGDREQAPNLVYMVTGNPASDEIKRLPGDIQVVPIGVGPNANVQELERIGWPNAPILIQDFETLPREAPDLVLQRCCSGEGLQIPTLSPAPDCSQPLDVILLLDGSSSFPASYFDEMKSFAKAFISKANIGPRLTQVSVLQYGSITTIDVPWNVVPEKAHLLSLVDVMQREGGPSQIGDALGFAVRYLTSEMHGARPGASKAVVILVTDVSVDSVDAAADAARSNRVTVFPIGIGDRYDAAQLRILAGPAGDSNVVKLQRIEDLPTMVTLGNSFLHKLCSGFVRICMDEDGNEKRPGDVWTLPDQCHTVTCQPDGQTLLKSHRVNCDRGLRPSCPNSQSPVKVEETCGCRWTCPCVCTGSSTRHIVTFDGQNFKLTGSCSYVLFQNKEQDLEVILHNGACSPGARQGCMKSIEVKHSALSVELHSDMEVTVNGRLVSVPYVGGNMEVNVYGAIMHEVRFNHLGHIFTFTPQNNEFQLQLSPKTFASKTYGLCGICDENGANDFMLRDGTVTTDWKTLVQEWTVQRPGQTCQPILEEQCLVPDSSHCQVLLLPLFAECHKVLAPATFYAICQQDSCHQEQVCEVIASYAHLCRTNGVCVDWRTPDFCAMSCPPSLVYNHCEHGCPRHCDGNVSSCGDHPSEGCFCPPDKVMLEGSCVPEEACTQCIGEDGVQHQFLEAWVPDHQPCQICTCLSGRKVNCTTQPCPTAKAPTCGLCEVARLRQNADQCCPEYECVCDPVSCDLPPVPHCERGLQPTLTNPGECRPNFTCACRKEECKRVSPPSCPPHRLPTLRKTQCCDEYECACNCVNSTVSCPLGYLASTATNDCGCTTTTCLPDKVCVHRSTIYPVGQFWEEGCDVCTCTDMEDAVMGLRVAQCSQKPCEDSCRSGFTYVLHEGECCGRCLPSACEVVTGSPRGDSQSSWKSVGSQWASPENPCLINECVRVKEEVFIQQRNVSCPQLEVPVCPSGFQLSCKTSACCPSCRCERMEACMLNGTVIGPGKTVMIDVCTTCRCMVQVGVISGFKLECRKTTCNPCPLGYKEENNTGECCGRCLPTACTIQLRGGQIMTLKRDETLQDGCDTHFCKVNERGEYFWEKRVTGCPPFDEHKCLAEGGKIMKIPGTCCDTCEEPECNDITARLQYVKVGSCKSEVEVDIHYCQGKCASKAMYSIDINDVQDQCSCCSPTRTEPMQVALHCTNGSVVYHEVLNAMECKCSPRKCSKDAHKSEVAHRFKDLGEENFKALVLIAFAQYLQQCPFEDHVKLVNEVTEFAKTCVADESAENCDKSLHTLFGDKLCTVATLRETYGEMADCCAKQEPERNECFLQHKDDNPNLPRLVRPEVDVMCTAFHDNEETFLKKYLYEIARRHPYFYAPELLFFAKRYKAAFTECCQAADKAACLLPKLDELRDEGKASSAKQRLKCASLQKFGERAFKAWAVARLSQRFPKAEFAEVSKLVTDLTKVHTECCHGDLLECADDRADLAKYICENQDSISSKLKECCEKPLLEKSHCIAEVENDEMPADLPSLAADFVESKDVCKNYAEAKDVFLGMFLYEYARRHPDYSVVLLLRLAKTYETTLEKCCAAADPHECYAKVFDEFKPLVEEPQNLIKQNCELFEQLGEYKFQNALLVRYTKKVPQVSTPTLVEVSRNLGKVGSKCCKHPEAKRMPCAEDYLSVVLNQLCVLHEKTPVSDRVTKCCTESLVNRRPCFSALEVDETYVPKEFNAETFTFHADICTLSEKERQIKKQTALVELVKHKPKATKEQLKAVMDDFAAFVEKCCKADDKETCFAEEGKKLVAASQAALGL
T6 sequence (chain, as listed by the source K1116C K1116C): as the sequence (chain, as listed by the source R768C R768C) above, with C5R, K353C counted along it
T5 sequence (chain, as listed by the source L984C L984C): as the sequence (chain, as listed by the source R768C R768C) above, with C5R, L221C counted along it
T1 sequence (chain, as listed by the source E1015C E1015C): as the sequence (chain, as listed by the source R768C R768C) above, with C5R, E252C counted along it
T4 sequence (chain, as listed by the source N1134C N1134C): as the sequence (chain, as listed by the source R768C R768C) above, with C5R, N371C counted along it
T2 sequence (chain, as listed by the source H817C H817C): as the sequence (chain, as listed by the source R768C R768C) above, with C5R, H54C counted along it

B1: Factor VIII SingleChain P1688C mutant (other)
chain: ATRRYYLGAVELSWDYMQSDLGELPVDARFPPRVPKSFPFNTSVVYKKTLFVEFTDHLFNIAKPRPPWMGLLGPTIQAEVYDTVVITLKNMASHPVSLHAVGVSYWKASEGAEYDDQTSQREKEDDKVFPGGSHTYVWQVLKENGPMASDPLCLTYSYLSHVDLVKDLNSGLIGALLVCREGSLAKEKTQTLHKFILLFAVFDEGKSWHSETKNSLMQDRDAASARAWPKMHTVNGYVNRSLPGLIGCHRKSVYWHVIGMGTTPEVHSIFLEGHTFLVRNHRQASLEISPITFLTAQTLLMDLGQFLLFCHISSHQHDGMEAYVKVDSCPEEPQLRMKNNEEAEDYDDDLTDSEMDVVRFDDDNSPSFIQIRSVAKKHPKTWVHYIAAEEEDWDYAPLVLAPDDRSYKSQYLNNGPQRIGRKYKKVRFMAYTDETFKTREAIQHESGILGPLLYGEVGDTLLIIFKNQASRPYNIYPHGITDVRPLYSRRLPKGVKHLKDFPILPGEIFKYKWTVTVEDGPTKSDPRCLTRYYSSFVNMERDLASGLIGPLLICYKESVDQRGNQIMSDKRNVILFSVFDENRSWYLTENIQRFLPNPAGVQLEDPEFQASNIMHSINGYVFDSLQLSVCLHEVAYWYILSIGAQTDFLSVFFSGYTFKHKMVYEDTLTLFPFSGETVFMSMENPGLWILGCHNSDFRNRGMTALLKVSSCDKNTGDYYEDSYEDISAYLLSKNNAIEPRSFSQNSRHRSTRQKQFNATTIPENTTLQSDQEEIDYDDTISVEMKKEDFDIYDEDENQSCRSFQKKTRHYFIAAVERLWDYGMSSSPHVLRNRAQSGSVPQFKKVVFQEFTDGSFTQPLYRGELNEHLGLLGPYIRAEVEDNIMVTFRNQASRPYSFYSSLISYEEDQRQGAEPRKNFVKPNETKTYFWKVQHHMAPTKDEFDCKAWAYFSDVDLEKDVHSGLIGPLLVCHTNTLNPAHGRQVTVQEFALFFTIFDETKSWYFTENMERNCRAPCNIQMEDPTFKENYRFHAINGYIMDTLPGLVMAQDQRIRWYLLSMGSNENIHSIHFSGHVFTVRKKEEYKMALYNLYPGVFETVEMLPSKAGIWRVECLIGEHLHAGMSTLFLVYSNKCQTPLGMASGHIRDFQITASGQYGQWAPKLARLHYSGSINAWSTKEPFSWIKVDLLAPMIIHGIKTQGARQKFSSLYISQFIIMYSLDGKKWQTYRGNSTGTLMVFFGNVDSSGIKHNIFNPPIIARYIRLHPTHYSIRSTLRMELMGCDLNSCSMPLGMESKAISDAQITASSYFTNMFATWSPSKARLHLQGRSNAWRPQVNNPKEWLQVDFQKTMKVTGVTTQGVKSLLTSMYVKEFLISSSQDGHQWTLFFQNGKVKVFQGNQDSFTPVVNSLDPPLLTRYLRIHPQSWVHQIALRMEVLGCEAQDLY
notes: Single-chain FVIII with partial B-domain deletion; also called FVIII-SC P1688C; Cys residue at FVIII aa position 1688
ratio covalent FVIII/Total FVIII activity [1]: 1.59
ratio covalent FVIII/Total FVIII activity [2]: 1.89
ratio covalent FVIII/Total FVIII activity [3]: 18.8
ratio covalent FVIII/Total FVIII activity [4]: 1.87
ratio covalent FVIII/Total FVIII activity [5]: 2.45
ratio covalent FVIII/Total FVIII activity [6]: 0.61
covalent FVIII [7]: 1080 amU/ml
covalent FVIII [8]: 367 amU/ml
covalent FVIII [9]: 2060 amU/ml
covalent FVIII [10]: 650 amU/ml
covalent FVIII [11]: 1900 amU/ml
covalent FVIII [12]: 666 amU/ml
ratio covalent FVIII/Total FVIII antigen [13]: 0.53
ratio covalent FVIII/Total FVIII antigen [14]: 0.29
ratio covalent FVIII/Total FVIII antigen [15]: 2.13
ratio covalent FVIII/Total FVIII antigen [16]: 6.11
ratio covalent FVIII/Total FVIII antigen [17]: 0.96
ratio covalent FVIII/Total FVIII antigen [18]: 1.89
